Reference: the nanobody polyreactivity screen of Harvey et al. (2022)

Assay: yeast display, Sf9 membrane polyspecificity reagent, FACS + sequencing; frameworks hold sequencing errors
In short: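 Sorting gates, low and high (top ~1%), were placed on anti-HA fluorescence to track expression and on streptavidin fluorescence to track reagent binding. A clone's polyreactivity label is taken from the gate it came out of. The reagent was 10% biotinylated, detergent-solubilized Sf9 membrane, applied for 1 hour at 4 °C to galactose-induced yeast display cells.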

| Sequence | polyreactivity (PSR sort gate) |
| --- | --- |
| QVHLVESGGGLVQAGGSLRLSCAASGRIFGTYVMGWYRQAPGKERELVARITGGGSTNYADSVKGRFTISRDNAKNTVYLQMNSLKPEDTAVYYCARDYGPYLSPENPAPMDYWGQGTQVTVSS | low polyreactivity |
| QVHLVESGGGLVQAGGSLRLSCAASGRIFGYYAMGWYRQAPGKERELVAAISYSTGGTSTYADSVKGRFTISRDNAKNTVYLQMNSLKPEDTAVYYCAVRRQYRRAYSFSQSRYDYWGQGTQVTVSS | high polyreactivity |
| QVHLVESGGGLVQAGGSLRLSCAASGRIFNSYAMGWYRPAPGKERELVAAINWTDVSTYYADSVKGRFTLSRYNAKNTVYVELNSLTPDDTAVYYGPDVRWGSYTLSDDYWGQGTQVTVSS | low polyreactivity |
| QVHLVESGGGLVQAGGSLRLSCAASGRIFNSYAMGWYRQAPGKERELVAAISRNGGITYYADSVKGRFTISRDNAKNTVYLQMNSLKPEDTAVYYCNADCSRRRYSSDYWGQGTQVTVSS | high polyreactivity |
| QVHLVESGGGLVQAGGSLRLSCAASGRIFRGYAMGWYRQAPGKERELVATISWNGGSTYYADSVKGRFTISRDNAKNTVYLQMNSLKPEDTAVYYCNKRYWGGRYGYDYWGQGTQVTVSS | high polyreactivity |
| QVHLVESGGGLVQAGGSLRLSCAASGRIFSYYALGWSRQAPGKERELVAAISWSGSRTYYADSVKGRFTFSRDNAKNTVYFQMNSLKPEDTAVYYCDAEVWSTQGSATVQYDYCGQGTQVTVSS | high polyreactivity |
| QVHLVESGGGLVQAGGSLRLSCAASGRIFTFYAMGWYRQAPGKERELVAAISSSGVRTYYADSVKGRFTISRDNAKNTVYLQMNSLKPEDTAVYYCAAASRANSYRYNYWGQGTQVTVSS | high polyreactivity |
| QVHLVESGGGLVQAGGSLRLSCAASGRIFVFNAMGWYRQAPGKDRELVAAISRSAFSTYYADSVKGRFTISRDNAKNTVYLHMISLIPEDTAVYYCTDERTYWFFWEMDSWGQGTQVTVSS | low polyreactivity |
| QVHLVESGGGLVQAGGSLRLSCAASGRIFYKNAMGWYRQAPGKERELVASITVGGGRTSYADSVKGRFTISRDNAKNTVYLQMNSLKPEDTAVFYCAATTGKTTFRATWYDYWGQCTQVTVSS | low polyreactivity |
| QVHLVESGGGLVQAGGSLRLSCAASGRIFYRNAMGWYRHAPGKERELVAAISRRGGSTSYADSVQGRFTISRDNAKNTVYLQMTSLKPEDTAVYYCAASRFRTGQEDDYWGQGTQVTVSS | high polyreactivity |
| QVHLVESGGGLVQAGGSLRLSCAASGRIFYSNVMGWYSQAPGKERELLAAISWSGGRTYYADSVKGRFTISRDNAKNTVYLQMNSLKPEDTAVYYCAAPGGVKYDYWGQGTQVTVSS | high polyreactivity |
| QVHLVESGGGLVQAGGSLRLSCAASGRIFYYYAMGWYRQAPGKERELVAGITITDASTYYADSVKGRFTISRDYAKNTVYLQMNSLKPEYTAVYYCNAVRYWEGRRYYYWGQGTQVTVSS | high polyreactivity |
| QVHLVESGGGLVQAGGSLRLSCAASGRILGKYSMGWYRQAPGKERELVAAIRLRGGSTYYADSVKGRFTISRDNAKNTVYLQMNSLKPEDTAVYYCAARYWDRSQAYNYWGQGTQVTVSS | high polyreactivity |
| QVHLVESGGGLVQAGGSLRLSCAASGRILVQNDMGWYRQAPGKERELVAAIRSDGSTSYADSVKGRFTISRDNAKNTVYLQMNSLKPEDTAVYYCAARIDWTGGEYDYWGQGTQVTVSS | low polyreactivity |
| QVHLVESGGGLVQAGGSLRLSCAASGRIYYRYAMGWYRTAPGKERELVAAISASGRTYYADSVKGRFTISRDNAKNTVYLQMNSLKTEDTAVYYCAKVAAGSLGSWGQGTQVTLSS | high polyreactivity |
| QVHLVESGGGLVQAGGSLRLSCAASGRLFFYALGWYRQSPRKERELVAAISWSGGSTYYADSVKGRFTISRDNAKNTVYLQMNSLKPEDTAVYYCAADYEGWGYDYRGDYWGQGTQVTVSS | low polyreactivity |
| QVHLVESGGGLVQAGGSLRLSCAASGRTFDRNAMGWYRQAPGKERELVAAISRNGGSTYYADSVKGRFTISRDNAKNTVYLQMNSLKPEDTAVYYCAAPRSVYDVARGDYWGQGTQVTVSS | high polyreactivity |
| QVHLVESGGGLVQAGGSLRLSCAASGRTFDVYAMGWYRQATGKERQLVATISYRSARTYYADSVKGRFTISRDNAKNTVYLQMNSLKPEDTAVYYCAAYFETWHGFGYWGQGTQVTVSS | high polyreactivity |
| QVHLVESGGGLVQAGGSLRLSCAASGRTFPSNVMGWYRQAPGKERELVAGITWRGASTYYADSVKGRFTISRDNAKNTVYLQMNSLKPEDTAVYYCAVRTQYRRYEYWGQGTKVTVSS | high polyreactivity |
| QVHLVESGGGLVQAGGSLRLSCAASGRTFRDYTMGWYRQAPGKEREFVAAISSTGSTNYADSVKGRFTISRDNAKNTVYLQMNSLKPEDTAVYYCAADGRRWLGWYGYYYWGQGTQVTVSS | low polyreactivity |
| QVHLVESGGGLVQAGGSLRLSCAASGRTFRYYAMGWYRQAPGKERELVAAITGSGGRTYYADSVKGRFTISRDNAKNTVYLQMNTLKPEDTAVYYCNRDPDIYICYDYWGQGTQVTVSS | high polyreactivity |

| Sequence | polyreactivity (PSR sort gate) |
| --- | --- |
| QVHLVESGGGLVQAGGSLRLSCAASGRTFSTYAMGWYRQAPGKESELVAAISSGGGRTYYADSVKGRFTISRDNAKNTVYLQMNSLKPEDTAVYYCAADRYFRSRRSYEYWGQGTQVTVSS | low polyreactivity |
| QVHLVESGGGLVQAGGSLRLSCAASGRTFVAYAMGWYRQAPAKERELVARISSGGSTYYADSVKGRFTISRDNAKNTVYLQMNSLKPEDTAVYYCAADRGPFFVPWRRYDYWGQGTEVTVSS | low polyreactivity |
| QVHLVESGGGLVQAGGSLRLSCAASGRTFWDYAMRWYRQAPGKEREFVAAINTYGGRTYYADSVKGRFTISRDNAINTVYLQMNSLKPEDTAVYYCADRTRDRAYDSWGQGTEVTVSS | high polyreactivity |
| QVHLVESGGGLVQAGGSLRLSCAASGRTIGWNVMGWYRQAPGKERELVAAISGSGITYADSVKGRFTISRDNAKNTVYLQMNSLKPEDTAVYYCAARARRYTDEYDYWGQGTQVTLSS | low polyreactivity |
| QVHLVESGGGLVQAGGSLRLSCAASGRTLRSYAMGWYRQAPGKERELVAAINWRDTNTYYADSVKGRFTISRDNAKNTVYLQMNSLKPEDTAVYYCAARYYSRGWRYNYWGPGTQVTVSS | high polyreactivity |
| QVHLVESGGGLVQAGGSLRLSCAASGRTYIRNAMGWYRQAPGKERELVAAISSRGGRTYYADSVKGRFTISRDNAKNTVYLQMNSLKPEDTAVYYCAADFTYKLDGYDYWGQGTQVTVSS | high polyreactivity |
| QVHLVESGGGLVQAGGSLRLSCAASGSIFDYYAMGWYRQAPGKERELVAAITYDSGRTYYADSVKGRFTNSRDNAKNTVYLQMYSLKPEDTAVYYCNKYSYSWRYCPGTSGYDYWGQGTQVTVSS | low polyreactivity |
| QVHLVESGGGLVQAGGSLRLSCAASGSIFGYNAMGWYRQAPGKERELVAAITWRGGSTYYADSVKGRFTISRDNAKNTVYLQMNSLKPEDTAVYYCAAYVYQEYDYWGQGTQVTVSS | high polyreactivity |
| QVHLVESGGGLVQAGGSLRLSCAASGSIFGYNTMGWYRQAPGKERELVATISGSGGSSYYADSVKGRFTISRDNAKNTVYLQMNSLKPEDTSVYYCAARAYSRYRRTYDYWGQGTQVTVSS | high polyreactivity |
| QVHLVESGGGLVQAGGSLRLSCAASGSIFITYAMVWYRQAPGKERELVAAIRDSGDRTYYADSVKGRFTISRDNAKNTVYLQMNSLKPEDTAVYYCNARWQEPLKYDYWGQGTKVTVSS | low polyreactivity |
| QVHLVESGGGLVQAGGSLRLSCAASGSIFLVYAMGWYRPAPGKERELVAVISNGGRTNYADSVKGRFTISRDNAKNTVYLQMNSLKPEDTAVYYCAVRGPTDYWADPYSAGDHWGQGTQVTVSS | high polyreactivity |
| QVHLVESGGGLVQAGGSLRLSCAASGSIFPYYVMGWYRQAPGKERELVAAISSGGNTYYADSVKGRFTISRDNAKNTVYLQMNSLKPEDTAVYYCNADKSYFVLLFGGYDYWGQGTQVTVSS | high polyreactivity |
| QVHLVESGGGLVQAGGSLRLSCAASGSIFRSYAMGWYRQAPGKERELVAGISWSGGSTYYADSVKGRFTISRDNAKNTVYLQMNSLKPEDTPVYYCDADIKIRLYTTGDYWGQGTQVTVSS | low polyreactivity |
| QVHLVESGGGLVQAGGSLRLSCAASGSIFSGYAMGWYRQAPGKEREFVAAISSSGGRTYYADSVKGRFTISRDNAKNTVYLQINSLKPEDTAVYYCNARRWPFNYDYWGQGTQVTVSS | high polyreactivity |
| QVHLVESGGGLVQAGGSLRLSCAASGSIFSSYAMGWYRQAPGKEREFVAAISWGGGSTYYADSVKGRFTISRDNAKNSVYLQMNSLKPEDTAVYYCAVETWLYPYDYWGQGTQVTVSS | high polyreactivity |
| QVHLVESGGGLVQAGGSLRLSCAASGSIFTRYVMGWYRQAPGKERELVAAISWSGGSTYYADSVKGRFTISRDNAKNTVYLQMNSLKPEDTAVYYCAAYYWYWSAAWWDEGEMEYWGQGTQVTVSS | high polyreactivity |
| QVHLVESGGGLVQAGGSLRLSCAASGSIFYKYVMGWYRQAPGKERELVAAISRGGGSTYYADSVKGRFTISRDNAKNTVYLQMNSLKPEDTAVYYCNAVGRPRYGHGFDHWGQGTQVTVSS | high polyreactivity |
| QVHLVESGGGLVQAGGSLRLSCAASGSIISRYTMGWYRQAPGKERELVAAITSSGGSTYYADSVKGRFTISRDNAKNTVYLQMNSLKPEDTAVYYCNKVNRYGKFDYWGQGTQVTVSS | high polyreactivity |
| QVHLVESGGGLVQAGGSLRLSCAASGSINYYAMGWYRQAPGKERELVAAITGSGGSTYYADSVKGRFTISRDNAKNTVYLQMNSLKPEDTAVYYCAARYGYIYGPYYYWGQGTQVTVSS | high polyreactivity |
| QVHLVESGGGLVQAGGSLRLSCAASGSNIYNNAMGWYRQAPGTERELVAAIRSTGTRTYYADSVKGRFTISRDNAKNPVNLQMNSLKPEDTAVYYCAVGDYGLWSYDYWGQGTQVTVSS | low polyreactivity |
